Target: interleukin 13 receptor (IL13R) (human)
Test: cell-based or functional assay

Substance: DTIL13 (ligand)
- IC50, inhibition of Calu-3 cell growth (3H-thymidine proliferation assay, 72 h): 3.1 nM
- IC50, inhibition of HT-29 cell growth (3H-thymidine proliferation assay, 72 h): 95 nM
- IC50, inhibition of PC-3 cell growth (3H-leucine proliferation assay, 72 h): 0.038 nM
- IC50, killing of DU-145 cells (3H-thymidine proliferation assay, 72 h): > 100 nM
- IC50, killing of U87 MG cells (3H-thymidine proliferation assay, 72 h): 10 nM
- IC50, killing of U118 cells (3H-thymidine proliferation assay, 72 h): 2 nM

Source: patent US20110091460A1
